# Results reported in the RNAGym collection of RNA variant scans (doi:10.7554/elife.80360).
# B1: CPEB3 Ribozyme (parent)
# chain: GGGGGCCACAGCAGAAGCGUUCACGUCGCGGCCCCUGUCAGAUUCUGGUGAAUCUGCGAAUUCUGCUGU
# Variants of: B1
# Assay: self-cleavage, relative activity (ratio to wild type); higher = more cleavage; co-transcriptional
row,Variant,self-cleavage
1,GGGGGCCACAGCAGAAGCGUUCACGUCGCGGCCCCUGUCAGAUUCUGGUGAAUCUGCAAAAUCUGCUGU [G58A U61A],0.827
2,GGGGGCCACAGCAGAAGCGUUCACGUCGCGGCCCCUGUCAGAUUCUGGUGAAUCUGCAAACUCUGCUGU [G58A U61C],0.82
3,GGGGGCCACAGCAGAAGCGUUCACGUCGCGGCCCCUGUCAGAUUCUGGUGAAUCUGCAAAGUCUGCUGU [G58A U61G],0.861
4,GGGGGCCACAGCAGAAGCGUUCACGUCGCGGCCCCUGUCAGAUUCUGGUGAAUCUGCAAAUCCUGCUGU [G58A U62C],0.872
5,GGGGGCCACAGCAGAAGCGUUCACGUCGCGGCCCCUGUCAGAUUCUGGUGAAUCUGCAAAUUCAGCUGU [G58A U64A],0.92
6,GGGGGCCACAGCAGAAGCGUUCACGUCGCGGCCCCUGUCAGAUUCUGGUGAAUCUGCAAAUUCCGCUGU [G58A U64C],0.861
7,GGGGGCCACAGCAGAAGCGUUCACGUCGCGGCCCCUGUCAGAUUCUGGUGAAUCUGCAAAUUCUGCAGU [G58A U67A],0.968
8,GGGGGCCACAGCAGAAGCGUUCACGUCGCGGCCCCUGUCAGAUUCUGGUGAAUCUGCAAAUUCUGCCGU [G58A U67C],0.993
9,GGGGGCCACAGCAGAAGCGUUCACGUCGCGGCCCCUGUCAGAUUCUGGUGAAUCUGCAAAUUCUGCUGA [G58A U69A],0.99
10,GGGGGCCACAGCAGAAGCGUUCACGUCGCGGCCCCUGUCAGAUUCUGGUGAAUCUGCAAAUUCUGCUGG [G58A U69G],1.02
11,GGGGGCCACAGCAGAAGCGUUCACGUCGCGGCCCCUGUCAGAUUCUGGUGAAUCUGCCCAUUCUGCUGU [G58C A59C],0.636
12,GGGGGCCACAGCAGAAGCGUUCACGUCGCGGCCCCUGUCAGAUUCUGGUGAAUCUGCCGAUUCUGCUGU [G58C A59G],0.982
13,GGGGGCCACAGCAGAAGCGUUCACGUCGCGGCCCCUGUCAGAUUCUGGUGAAUCUGCCUAUUCUGCUGU [G58C A59U],0.701
14,GGGGGCCACAGCAGAAGCGUUCACGUCGCGGCCCCUGUCAGAUUCUGGUGAAUCUGCCACUUCUGCUGU [G58C A60C],0.359
15,GGGGGCCACAGCAGAAGCGUUCACGUCGCGGCCCCUGUCAGAUUCUGGUGAAUCUGCCAGUUCUGCUGU [G58C A60G],0.683
16,GGGGGCCACAGCAGAAGCGUUCACGUCGCGGCCCCUGUCAGAUUCUGGUGAAUCUGCCAAUUAUGCUGU [G58C C63A],0.906
17,GGGGGCCACAGCAGAAGCGUUCACGUCGCGGCCCCUGUCAGAUUCUGGUGAAUCUGCCAAUUGUGCUGU [G58C C63G],0.823
18,GGGGGCCACAGCAGAAGCGUUCACGUCGCGGCCCCUGUCAGAUUCUGGUGAAUCUGCCAAUUUUGCUGU [G58C C63U],0.997
19,GGGGGCCACAGCAGAAGCGUUCACGUCGCGGCCCCUGUCAGAUUCUGGUGAAUCUGCCAAUUCUGAUGU [G58C C66A],0.818
20,GGGGGCCACAGCAGAAGCGUUCACGUCGCGGCCCCUGUCAGAUUCUGGUGAAUCUGCCAAUUCUGGUGU [G58C C66G],0.884

row,Variant,self-cleavage
1,GGGGGCCACAGCAGAAGCGUUCACGUCGCGGCCCCUGUCAGAUUCUGGUGAAUCUGCCAAUUCUACUGU [G58C G65A],0.844
2,GGGGGCCACAGCAGAAGCGUUCACGUCGCGGCCCCUGUCAGAUUCUGGUGAAUCUGCCAAUUCUUCUGU [G58C G65U],0.842
3,GGGGGCCACAGCAGAAGCGUUCACGUCGCGGCCCCUGUCAGAUUCUGGUGAAUCUGCCAAUUCUGCUAU [G58C G68A],1
4,GGGGGCCACAGCAGAAGCGUUCACGUCGCGGCCCCUGUCAGAUUCUGGUGAAUCUGCCAAUUCUGCUCU [G58C G68C],0.963
5,GGGGGCCACAGCAGAAGCGUUCACGUCGCGGCCCCUGUCAGAUUCUGGUGAAUCUGCCAAUUCUGCUUU [G58C G68U],1.02
6,GGGGGCCACAGCAGAAGCGUUCACGUCGCGGCCCCUGUCAGAUUCUGGUGAAUCUGCCAAAUCUGCUGU [G58C U61A],0.877
7,GGGGGCCACAGCAGAAGCGUUCACGUCGCGGCCCCUGUCAGAUUCUGGUGAAUCUGCCAAGUCUGCUGU [G58C U61G],0.912
8,GGGGGCCACAGCAGAAGCGUUCACGUCGCGGCCCCUGUCAGAUUCUGGUGAAUCUGCCAAUACUGCUGU [G58C U62A],0.918
9,GGGGGCCACAGCAGAAGCGUUCACGUCGCGGCCCCUGUCAGAUUCUGGUGAAUCUGCCAAUCCUGCUGU [G58C U62C],0.902
10,GGGGGCCACAGCAGAAGCGUUCACGUCGCGGCCCCUGUCAGAUUCUGGUGAAUCUGCCAAUUCAGCUGU [G58C U64A],0.955
11,GGGGGCCACAGCAGAAGCGUUCACGUCGCGGCCCCUGUCAGAUUCUGGUGAAUCUGCCAAUUCCGCUGU [G58C U64C],0.777
12,GGGGGCCACAGCAGAAGCGUUCACGUCGCGGCCCCUGUCAGAUUCUGGUGAAUCUGCCAAUUCUGCAGU [G58C U67A],0.988
13,GGGGGCCACAGCAGAAGCGUUCACGUCGCGGCCCCUGUCAGAUUCUGGUGAAUCUGCCAAUUCUGCCGU [G58C U67C],0.961
14,GGGGGCCACAGCAGAAGCGUUCACGUCGCGGCCCCUGUCAGAUUCUGGUGAAUCUGCCAAUUCUGCUGA [G58C U69A],0.998
15,GGGGGCCACAGCAGAAGCGUUCACGUCGCGGCCCCUGUCAGAUUCUGGUGAAUCUGCCAAUUCUGCUGG [G58C U69G],1.05
16,GGGGGCCACAGCAGAAGCGUUCACGUCGCGGCCCCUGUCAGAUUCUGGUGAAUCUGCUCAUUCUGCUGU [G58U A59C],0.8
17,GGGGGCCACAGCAGAAGCGUUCACGUCGCGGCCCCUGUCAGAUUCUGGUGAAUCUGCUUAUUCUGCUGU [G58U A59U],0.749
18,GGGGGCCACAGCAGAAGCGUUCACGUCGCGGCCCCUGUCAGAUUCUGGUGAAUCUGCUAGUUCUGCUGU [G58U A60G],0.977
19,GGGGGCCACAGCAGAAGCGUUCACGUCGCGGCCCCUGUCAGAUUCUGGUGAAUCUGCUAUUUCUGCUGU [G58U A60U],0.331
